In paper PMC12609122:

Columns and labels:
[1] = target: Tha4 A65CT78C (E10 background) (Pisum sativum); assay: cross-linking; radiolabelled double-Cys Tha4 integrated into NEM-treated pea thylakoids; 0.25 mM BMOE, 10 min; four conditions: with or without precursor (V-20F)tOE17 (1.5 uM), with PMF (light, 15 °C) or without (dark, on ice; 0.5 uM nigericin and 1 uM valinomycin); SDS-PAGE and fluorography; result as told over the conditions
[2] = target: Tha4 P56CP58C (E10 background) (Pisum sativum); assay: as above
[3] = target: Tha4 V13CI14C (E10 background) (Pisum sativum); assay: as above
[4] = target: Tha4 E10D V8CP9C (Pisum sativum); assay: as above
[5] = target: Tha4 E10D P56CP58C (Pisum sativum); assay: as above
[6] = target: Tha4 E10A P56CP58C (Pisum sativum); assay: as above
[7] = target: Tha4 E10A V21CG23C (Pisum sativum); assay: as above
[8] = target: Tha4 E10D K39CQ43C (Pisum sativum); assay: as above
[9] = target: Tha4 E10A F41CA45C (Pisum sativum); assay: as above
[10] = target: Tha4 E10A A18CL20C (Pisum sativum); assay: cross-linking; as a1, the sample with the functional precursor (V-20F)tOE17 and with PMF (light)
[11] = target: Tha4 E10A V8CP9C (Pisum sativum); assay: cross-linking; radiolabelled double-Cys Tha4 integrated into NEM-treated pea thylakoids; 0.25 mM BMOE, 10 min; four conditions: with or without precursor (V-20F)tOE17 (1.5 uM), with PMF (light, 15 °C) or without (dark, on ice; 0.5 uM nigericin and 1 uM valinomycin); SDS-PAGE and fluorography; result as told over the conditions
[12] = target: Tha4 V8CP9C (E10 background) (Pisum sativum); assay: cross-linking; as a1, the samples with the functional precursor (V-20F)tOE17 (1.5 uM), with or without PMF
[13] = target: Tha4 V8CP9C (E10 background) (Pisum sativum); assay: cross-linking; radiolabelled double-Cys Tha4 integrated into NEM-treated pea thylakoids; 0.25 mM BMOE, 10 min; four conditions: with or without precursor (V-20F)tOE17 (1.5 uM), with PMF (light, 15 °C) or without (dark, on ice; 0.5 uM nigericin and 1 uM valinomycin); SDS-PAGE and fluorography; result as told over the conditions
[14] = target: Tha4 V21CG23C (E10 background) (Pisum sativum); assay: as above

With “Tha4 A65CT78C (E10 background) (natural protein)” the stoichiometry N [1] was < 5.

“Tha4 P56CP58C (E10 background) (natural protein)” was tested, and the stoichiometry N [2] was < 4.

For “Tha4 V13CI14C (E10 background) (natural protein)”, the stoichiometry N [3] was < 6.

With Tha4 E10D V8CP9C (natural protein) the stoichiometry N [4] was < 6.

In the case of Tha4 E10D P56CP58C (natural protein), the stoichiometry N [5] is reported as < 4.

In the case of Tha4 E10A P56CP58C (natural protein), the stoichiometry N [6] is reported as < 4.

Tha4 E10A V21CG23C (natural protein) was tested, and the stoichiometry N [7] was < 10.

For Tha4 E10D K39CQ43C (natural protein), the stoichiometry N [8] was < 4.

In the case of Tha4 E10A F41CA45C (natural protein), the stoichiometry N [9] is reported as < 6.

Tha4 E10A A18CL20C (natural protein) was tested, and the stoichiometry N [10] was < 4.

For Tha4 E10A V8CP9C (natural protein), the stoichiometry N [11] was < 6.

For “Tha4 V8CP9C (E10 background) (natural protein)”, the stoichiometry N [12] was < 6 and the stoichiometry N [13] was < 4.

In the case of “Tha4 V21CG23C (E10 background) (natural protein)”, the bands in the oligomer ladder [14] is reported as < 6 bands.
